Measured values from patent publication US20110293610A1 (published 2011).
Substitutions are numbered along the chain they refer to.

T1: APRIL, soluble form (Homo sapiens (Human), UniProt O75888 105-250)
T1 sequence: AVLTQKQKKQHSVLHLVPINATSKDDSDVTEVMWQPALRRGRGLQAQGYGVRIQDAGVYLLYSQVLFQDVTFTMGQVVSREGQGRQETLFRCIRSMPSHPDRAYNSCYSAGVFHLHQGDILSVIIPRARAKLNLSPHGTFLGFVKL

B1: BAB2087 (scFv)
scFv: QVQLVQSGAEVKKPGASVKVSCKASGFAFSSYDINWVRQAPGQGLEWMGWMNPKSGKTGYAQNFQGRVTMTRNTSISTAYMELSSLKSEDTAVYFCARGFTGYDILTDYYSVDYFDSWGRGTLVTVSSGGGGSGGGGSGGGGSALPVLTQPPSVSVAPGQTARITCGGSSIGRKSVHWYQQSPGQAPVLVVYDDSDRPSGIPERFSGSNSGDTATLTISRVEVGDEADYYCQVWDINSDHVVFGGGTKLTVLG
B2: BAB2016 (scFv)
scFv: EVQLVQSGGGLVQPGGSLRLSCAASGFTFSSYWMSWVRQAPGKGLEWVANIKQDGSGKYYVDSVKGRFTISRDNAKNSLYLQMNSLRAEDTAVYYCARDPRYDILTGYLYGMDVWGQGTMVTVSSGGGGSGGGGSGGGGSQSVLTQPASVSGSPGQSITISCTGTSSDVGGYNYVSWYQQHPGKAPKLMIYEGSKRPSGVSNRFSGSKSGNTASLTISGLQAEDEADYYCSSYTTRSTRVFGGGTKLTVLG
B3: BAB2034 (scFv)
scFv: QVQLQQSGPGLVKPSQTLSLTCAISGDSVSSNSAAWNWIRQSPSRGLEWLGRTYYRSKWYNDYAVSVKSRITINPDTSKNQFSLQLNSVTPEDTAVYYCAREGAHYDILTGHNYYHYGMDVWGQGTMVTVSSGGGGSGGGGSGGGGSQSVLTQPPSASGSPGQSVTISCTGTSSDVGGYNYVSWYQQHPGKAPKFMIYDVSKRPSGVSNRFSGSKSGNTASLTISGVQAEDEADYYCSSYTSASTVIFGGGTKLTVLG
B4: BAB2065 (scFv)
scFv: GVQLVQSGAEVKKPGASVKVSCKASGYTFTKYTMHWVRQAPGQGPEWMGWINGGSGDTKYSRKFQGRVTITKDTSASAAYMELSSLGSEDTALYYCARATYDPLTGYSFDGFDIWGQGTMVTVSSGGGGSGGGGSGGGGSSELTQPASVSGSPGQSITISCTGTSSDVGGYNYVSWYQQHPGKAPKLMIYEGSKRPSGVSNRFSGSKSGNTASLTISGLQAEDEADYYCSSYTTRSTRVFGGGTKLTVLG
B5: I116A01 IgG1 (antibody, V domains shown)
VH: QVQLQQSGAEVKKPGSSVRVSCKASGGTFNNNAINWVRQAPGQGLEWMGGIIPMFGTAKYSQNFQGRVAITADESTGTASMELSSLRSEDTAVYYCARSRDLLLFPHHALSPWGRGTMVTVSS
VL: SSELTQDPAVSVALGQTVRVTCQGDSLRSYYASWYQQKPGQAPVLVIYGKNNRPSGIPDRFSGSSSGNTASLTITGAQAEDEADYYCSSRDSSGNHWVFGGGTELTVLG
B6: I006D08 IgG1 (antibody, V domains shown)
VH: B5 VH with G77S, H108Y, A109G, L110M, S111D, P112V
VL: B5 VL with S88N

Legend:
APRIL, soluble form = molecular target: T1, APRIL, soluble form; assay: phage display panning on soluble APRIL, rounds two and three
Description: (§1) In a specific embodiment, antibodies of the present invention cross react with APRIL (SEQ ID NO:3239; GenBank Accession No. AF046888; J. Exp. Med. 188(6):1185-1190; PCT International Publication WO97/33902). […] These scFvs were isolated by panning a phage scFv library comprising VH and VL domains obtained from human bone marrow B cells (BM library). Phage from the BM phage library were first selected for binding to soluble B Lymphocyte Stimulator (amino acids 134-285 of SEQ ID NO:3228). A second round of selection for binding to the soluble form of APRIL (amino acids 105-250 of SEQ ID NO:3239) was then performed on the B Lymphocyte Stimulator binding phage selected in round one. A third round of selection for binding to the soluble form of APRIL (amino acids 105-250 of SEQ ID NO:3239) was then performed on the phage selected in round two. A final (fourth) round of selection for binding to the soluble form of B Lymphocyte Stimulator (amino acids 134-285 of SEQ ID NO:3228) was then performed on the phage selected in round three. Phage clones that bound B Lymphocyte Stimulator in the fourth round of selection were eluted with either 0.1M triethylamine (TEA) or with a TACI-Fc fusion protein (e.g., the extracellular domain of TACI (amino acids 31 to 159 of Genbank Accession No. AAC51790) fused to Fc).

[1] = molecular target: T2, B Lymphocyte Stimulator, soluble form (human) (human, UniProt Q9Y275 134-285, biotinylated with NHS-biotin where used as biotinylated B Lymphocyte Stimulator); assay: phage display panning on soluble BLyS
T2 construct: Coated on plastic, captured on streptavidin plates, amine-coupled to a CM5 chip or free in solution, depending on the assay; also called BLyS; immobilized B Lymphocyte Stimulator
Description: as §1

[2] = molecular target: T3, B Lymphocyte Stimulator, soluble form (human, UniProt Q9Y275 134-285); assay: BIAcore, IgG1 captured on low-density Protein A, BLyS flowed over; mean ± SD
T3 construct: also called BLyS; Neutrokine-alpha
Protocol: Briefly, antibodies were captured on low-density Protein A surfaces and B Lymphocyte Stimulator was passed over at various flow rates. The binding of B Lymphocyte Stimulator to immobilized antibody was detected by changes in […] that were proportional to the amount of bound B Lymphocyte Stimulator. Binding values were calculated using software provided by the manufacturer.

Row | Binder | binding result (APRIL, soluble form) | binding result [1] | Kd [2] [nM] | koff [2] [s⁻¹] | kon [2] [M⁻¹ s⁻¹]
1 | B1 | binds | binds | – | – | –
2 | B2 | binds | binds | – | – | –
3 | B3 | binds | binds | – | – | –
4 | B4 | binds | binds | – | – | –
5 | B5 | – | – | 0.267 | 0.000332 | 1.26e+06
6 | B6 | – | – | 0.498 | 0.00058 | 1.43e+06
